This note sets out measurements from US20240262919A1 (SHANGHAITECH UNIVERSITY, published 2024).

Positions count from the first letter of the chain named.

The target of assay [1] is T1, human IL-18Rβ ECD Fc fusion (118-AP-100, R&D Systems) (human, UniProt O95256 20-356).
T1 construct: Bought protein; also called hIL-18Rβ; recombinant human IL-18Rb; not shown: Fc tag of the bought fusion protein, not described
T1 sequence: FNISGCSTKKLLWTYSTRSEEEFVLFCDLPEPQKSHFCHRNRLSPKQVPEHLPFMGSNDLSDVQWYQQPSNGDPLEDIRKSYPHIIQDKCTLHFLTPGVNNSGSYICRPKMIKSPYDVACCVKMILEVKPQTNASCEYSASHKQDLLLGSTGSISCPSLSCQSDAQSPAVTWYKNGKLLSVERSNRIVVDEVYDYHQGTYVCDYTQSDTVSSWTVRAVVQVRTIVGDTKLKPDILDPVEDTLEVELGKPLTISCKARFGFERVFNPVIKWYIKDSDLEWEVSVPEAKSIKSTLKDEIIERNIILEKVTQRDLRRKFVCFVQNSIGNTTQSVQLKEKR
Put plainly: ELISA on recombinant human IL-18Rβ, normalised OD 450 nm, Fab with PBS or with saturating IgG 3131 [bottom plot]. The source says:
(§1) The results are presented in FIG. 9, in which the binding signals for purified. […] Error bars represent standard deviation of replicate measurements.
In general terms: ELISA stands for enzyme-linked immunosorbent assay.

Assay [2] addresses T1, human IL-18Rβ ECD Fc fusion …. As to the kind of experiment: ELISA on recombinant human IL-18Rβ, normalised OD 450 nm, Fab with PBS or with saturating IgG 3131 [top plot].
Excerpt: as §1

For assay [3] the target is unchanged. Put plainly: ELISA on recombinant human IL-18Rβ, normalised OD 450 nm, Fab with PBS or with saturating IgG 3131 [middle plot].
Excerpt: as §1

B1: 3131 AM2-36 (Fab, V domains shown)
VH: EVQLVESGGGLVQPGGSLRLSCAASGFNLYYSSMHWVRQAPGKGLEWVASIYSSSGSTSYADSVKGRFTISADTSKNTAYLQMNSLRAEDTAVYYCARSSFSHGYGWYGLDYWGQGTLVTVSS
VL: DIQMTQSPSSLSASVGDRVTITCRASQSVSSAVAWYQQKPGKAPKLLIYSASSLYSGVPSRFSGSRSGTDFTLTISSLQPEDFATYYCQQYGYHYAGLITFGQGTKVEIK
notes: Fab
B1: the binding result in assay [1] is given as “binds”.

B2: 3131 AM2-7 (Fab, V domains shown)
VH: B1 VH with S55H, S57G, S59Y
VL: B1 VL with Y95D
notes: Fab
Turning to B2, the binding result in assay [2] is “binds”.

B3: 3131 AM2-18 (Fab, V domains shown)
VH: B1 VH with S55G
VL: B1 VL
notes: Fab
In the case of B3, the binding result in assay [3] is given as “binds”.

B4: 3131 AM2-28 (Fab, V domains shown)
VH: B1 VH with S55Y, S57Y, S59Y
VL: B1 VL with A51R, L54D, Y55S
notes: Fab
For B4, in assay [3], the binding result is recorded as “binds”.

B5: 3131 AM2-4 (Fab, V domains shown)
VH: B1 VH with S59C
VL: B1 VL
notes: Fab
Take B5: the binding result in assay [2] is “binds”.

B6: 3131 AM2-21 (Fab, V domains shown)
VH: B1 VH with S55Y, S57Y, S59Y
VL: B1 VL with A51G, L54G, Y55R
notes: Fab
With B6, in assay [3], the binding result is reported as “binds”.

B7: 3131 AM2-15 (Fab, V domains shown)
VH: B1 VH with S57D, S59G
VL: B1 VL
notes: Fab
Consider B7, for which the binding result in assay [3] was “binds”.

B8: 3131 AM2-S-T (Fab, V domains shown)
VH: B1 VH with S55Y, S57Y, S59Y
VL: B1 VL with S50T
notes: Fab
Consider B8, for which the binding result in assay [1] was “binds”.

B9: 3131 AM2-9 (Fab, V domains shown)
VH: B1 VH with S55Y, S57Y, S59Y
VL: B1 VL with Y95N
notes: Fab
As for B9, the binding result in assay [2] is on record as “binds”.

B10: 3131 AM2-14 (Fab, V domains shown)
VH: B1 VH with S55Y, S57Y, S59Y
VL: B1 VL with Y95G
notes: Fab
As to B10, in assay [2], the binding result is on record as “binds”.

B11: 3131 AM2-31 (Fab, V domains shown)
VH: B1 VH with S55Y, S57Y, S59Y
VL: B1 VL with A51E
notes: Fab
For the molecule B11, the binding result in assay [3] is “binds”.

B12: 3131 AM2-26 (Fab, V domains shown)
VH: B1 VH with S55Y, S57Y, S59Y
VL: B1 VL with A51E, Y55S
notes: Fab
Turning to B12, the binding result in assay [3] is recorded as “binds”.

B13: 3131 AM2-25 (Fab, V domains shown)
VH: B1 VH with S55Y, S57Y, S59Y
VL: B1 VL with L54R, Y55D
notes: Fab
For B13, in assay [3], the binding result was “binds”.

B14: 3131 AM2-6 (Fab, V domains shown)
VH: B1 VH with S55H, S57G, S59N
VL: B1 VL
notes: Fab
With B14, in assay [2], the binding result is “binds”.

B15: 3131 AM2-S-H (Fab, V domains shown)
VH: B1 VH with S55Y, S57Y, S59Y
VL: B1 VL with S50H
notes: Fab
Take B15: in assay [1], the binding result is listed as “binds”.

B16: 3131 AM2-1 (Fab, V domains shown)
VH: B1 VH with S55Y, S57Y, S59Y
VL: B1 VL with Y95H
notes: Fab
As to B16, the binding result in assay [2] is “binds”.

B17: 3131 AM2-S-Y (Fab, V domains shown)
VH: B1 VH with S55Y, S57Y, S59Y
VL: B1 VL with S50Y
notes: Fab
With B17, the binding result in assay [1] is on record as “binds”.

B18: 3131 AM2-S-G (Fab, V domains shown)
VH: B1 VH with S55Y, S57Y, S59Y
VL: B1 VL with S50G
notes: Fab
B18: the binding result in assay [1] is on record as “binds”.

B19: 3131 AM2-32 (Fab, V domains shown)
VH: B1 VH with S55Y, S57Y, S59Y
VL: B1 VL with A51S, L54V
notes: Fab
With B19, the binding result in assay [1] is “binds”.

B20: 3131 AM2-30 (Fab, V domains shown)
VH: B1 VH with S55Y, S57Y, S59Y
VL: B1 VL with L54E, Y55R
notes: Fab
In the case of B20, the binding result in assay [3] is on record as “binds”.

B21: 3131 AM2-37 (Fab, V domains shown)
VH: B1 VH
VL: B1 VL with Y95S
notes: Fab
As to B21, in assay [1], the binding result is “binds”.

B22: 3131 AM2-33 (Fab, V domains shown)
VH: B1 VH with S55Y, S57H
VL: B1 VL
notes: Fab
On to B22, for which, in assay [1], the binding result was “binds”.

B23: 3131 AM2-13 (Fab, V domains shown)
VH: B1 VH with S55Y, S57Y, S59Y
VL: B1 VL with Y95D
notes: Fab
Consider B23, for which, in assay [2], the binding result is recorded as “binds”.

B24: 3131 AM2-2 (Fab, V domains shown)
VH: B1 VH with S55H, S57R, S59G
VL: B1 VL with L54R, Y55D
notes: Fab
Consider B24, for which, in assay [2], the binding result is recorded as “binds”.

B25: 3131 AM2-35 (Fab, V domains shown)
VH: B1 VH with S55Y, S57Y, S59Y
VL: B1 VL with Y95S
notes: Fab
With B25, in assay [1], the binding result was “binds”.

B26: 3131 AM2-24 (Fab, V domains shown)
VH: B1 VH with S55Y, S57Y, S59Y
VL: B1 VL with A51D
notes: Fab
Consider B26, for which, in assay [3], the binding result is given as “binds”.

B27: 3131 AM2-17 (Fab, V domains shown)
VH: B1 VH with S55H, S57N, S59D
VL: B1 VL
notes: Fab
With B27, the binding result in assay [3] was “binds”.

B28: 3131 AM2-5 (Fab, V domains shown)
VH: B1 VH with S57D, S59H
VL: B1 VL
notes: Fab
In the case of B28, the binding result in assay [2] was “binds”.

B29: 3131 AM2-3 (Fab, V domains shown)
VH: B1 VH with S57Y
VL: B1 VL
notes: Fab
Take B29: in assay [2], the binding result is on record as “binds”.
